Publication PMC10325919, “A potential histone-chaperone activity for the MIER1 histone deacetylase complex” (Nucleic Acids Research, 2023)
Starred links: 1 amine or outer side, 2 acyl side, 3 side chain; linkers in the order of their positions; H or OH if unused. Non-standard residues stand in square brackets, D forms with d. No end group written: not given here. Lys(Me3) = C[N+](C)(C)CCCC[C@H](N)C(=O)O; Ethylenediamine = C(CN[*:2])N[*:1]; 5‑FAM = 5-carboxyfluorescein; GABA = NCCCC(=O)O

T1: E. coli expressed BAHD1(aa:588–780) (UniProt Q8TBE0 588-780)
T1 construct: BAHD1, BAH domain, aa 588-780; also called BAH domain of BAHD1; source: E. coli expressed
T1 sequence (looked up): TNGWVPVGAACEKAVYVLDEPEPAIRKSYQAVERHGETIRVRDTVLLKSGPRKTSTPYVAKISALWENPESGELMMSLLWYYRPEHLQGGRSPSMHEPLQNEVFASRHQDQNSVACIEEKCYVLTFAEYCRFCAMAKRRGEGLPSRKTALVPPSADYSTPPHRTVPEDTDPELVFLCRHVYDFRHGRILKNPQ


Columns and labels:
[1] = target: Full length HDAC1(aa:1–482) (UniProt Q13547 1-482); experiment: co-IP + SEC; FLAG-tagged bait transfected in HEK293F (with untagged partners where stated); lysate on anti-FLAG M2 resin, washed in 50 mM Tris/HCl pH 7.5, 50 mM potassium acetate, eluted by TEV protease, then Superdex S200 gel filtration; fractions on SDS-PAGE, bands identified by mass spectrometry; details: partners not purified
Chain of Full length HDAC1(aa:1–482) (Q13547 whole entry): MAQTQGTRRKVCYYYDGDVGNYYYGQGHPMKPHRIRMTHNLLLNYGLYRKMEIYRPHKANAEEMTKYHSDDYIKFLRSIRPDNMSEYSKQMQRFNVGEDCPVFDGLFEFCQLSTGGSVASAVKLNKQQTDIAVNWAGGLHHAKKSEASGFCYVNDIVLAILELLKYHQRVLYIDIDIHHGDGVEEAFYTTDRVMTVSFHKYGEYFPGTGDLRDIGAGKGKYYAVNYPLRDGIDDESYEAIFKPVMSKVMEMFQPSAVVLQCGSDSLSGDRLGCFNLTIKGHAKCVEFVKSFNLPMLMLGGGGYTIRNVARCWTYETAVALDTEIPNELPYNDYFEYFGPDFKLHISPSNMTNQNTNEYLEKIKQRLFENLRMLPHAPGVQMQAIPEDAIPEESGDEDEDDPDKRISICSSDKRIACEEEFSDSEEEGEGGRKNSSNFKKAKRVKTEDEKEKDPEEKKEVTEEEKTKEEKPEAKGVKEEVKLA

[2] = target: T1, E. coli expressed BAHD1(aa:588–780); experiment: fluorescence polarisation; 5 nM 5-FAM labelled histone peptide, BAHD1(aa:588–780) 0–142 μM, 25 mM Tris/Cl pH 7.5, 50 mM NaCl, 15 min at 37°C; one-site binding model; details: both partners purified

| Binder | binding result [1] | binding result [2] |
| --- | --- | --- |
| FLAG-tagged MIER1 ELM2-SANT (aa:171–350) (domain or fragment, UniProt Q8N108 171-350, looked up, The tag holds the protein on the anti-FLAG resin; it is cut off by TEV protease for elution, before gel filtration and SEC-MALS; also called isolated ELM2-SANT domain; source: HEK293F, co-transfected with HDAC1; anti-FLAG resin, TEV, Superdex S200; not shown: 10xHis-3xFLAG, N-terminal, kept) DYIPSEDWKKEIMVGSMFQAEIPVGICRYKENEKVYENDDQLLWDPEYLPEDKVIIFLKDASRRTGDEKGVEAIPEGSHIKDNEQALYELVKCNFDTEEALRRLRFNVKAAREELSVWTEEECRNFEQGLKAYGKDFHLIQANKVRTRSVGECVAFYYMWKKSERYDFFAQQTRFGKKKY | binds | – |
| PRKQLATKAAR[Lys(Me3)]SAPATGG-{Ethylenediamine-GABA-5‑FAM} (Histone H3 tail peptide, named H3 16–35; also called H3 histone tail bearing a K27me3 modification; source: synthetic peptide, bought: Cambridge Research Biochemicals) [H3 16–35 K27me3 peptide] | – | binds |
